How the values were obtained:
[1] = tested on: EFT-400 tissues; assay: Gene expression by quantitative PCR custom array in EFT-400 tissues with or without UV irradiation; conditions: for AVG Ct ACTB (housekeeping gene) / AVG Ct AQP3 / AVG Ct BCL2L1 / AVG Ct COL1A1 / AVG Ct COL4A2 / AVG Ct COL5A1 / AVG Ct COL6A1 / AVG Ct COL6A2 / AVG Ct COL7A1 / AVG Ct COL8A1 / AVG Ct COL11A1 / AVG Ct COL12A1 / AVG Ct COL14A1 / AVG Ct COL15A1 / AVG Ct COL16A1 / AVG Ct DSG1 / AVG Ct ERCC1 / AVG Ct FN1 / AVG Ct GAPDH (housekeeping gene) / AVG Ct GDF15 / AVG Ct GSTM3 / AVG Ct HSPA8 / AVG Ct IL1A / AVG Ct IL1B / AVG Ct IL8 / AVG Ct KAL1 / AVG Ct KRT16 / AVG Ct LAMA1 / AVG Ct LAMA2 / AVG Ct LAMA3 / AVG Ct LAMA5 / AVG Ct LAMB1 / AVG Ct LAMB3 / AVG Ct LAMC1 / AVG Ct MMP1 / AVG Ct MMP2 / AVG Ct MT2A / AVG Ct PCNA / AVG Ct RPL13A (housekeeping gene) / AVG Ct SIRT1 / AVG Ct TGFBI / AVG Ct THBS3 / AVG Ct TNC / AVG Ct VTN: UVB + UVA
Experimental: EpiDerm-FT™ (EFT-400) tissues were produced and packaged in the MatTek Corporation GMP tissue culture production laboratories following standard procedures. Packaged tissues were stored at 4° C. overnight and then re-equilibrated in EFT-400-ASY medium overnight prior to the start of experiments. The sample size was n=3 for each treatment group in the gene expression experiments; and n=6 (two independent experiments of n=3) for the sunburned cell counts.
Total RNA was isolated from the EFT-400 tissues (RNAqueous kit, Ambion) (n=3) and utilized for gene expression analysis by quantitative PCR on an SABioscience custom array containing 42 Human Extracellular Matrix (ECM) and Adhesion Molecules RT^2 Profiler™ PCR Array, stress and toxicity genes whose expression, based on MatTek data, are known to be dramatically altered by UV-protective compounds on UV damaged skin. […] Further, there were three internal control spots on the array that corresponded to human genomic DNA contamination (HGDC), positive PCR control (PPC), and reverse transcription control (RTC).

[2] = tested on: EFT-400 tissues; assay: Sunburned cell counts in UV-irradiated EpiDerm-FT (EFT-400) skin model tissues, H&E histology; format: cell-based, human; conditions: for sunburned cell formation: 200 mJ/cm2 UVB/29.94 mW/cm2 UVA, 24 hour post irradiation
Experimental: Packaged tissues were stored at 4° C. overnight and then re-equilibrated in EFT-400-ASY medium overnight prior to the start of experiments. The sample size was n=3 for each treatment group in the gene expression experiments; and n=6 (two independent experiments of n=3) for the sunburned cell counts.
Treated and untreated tissues were exposed to UV irradiation with 200 mJ/cm^2UVB/29.94 mW/cm^2UVA simulated solar UV light (Honle-500 solar lamp).
At the conclusion of the 24 hour post-irradiation period, EFT-400 tissues were fixed in 10% formalin for 2 hours at room temperature (two independent experiments with n=3). Formalin fixed tissues were embedded in paraffin and 6 micron slices were stained with haematoxylin and eosin (H&E).

B1: Nell 1: Full-length human recombinant NELL1 protein (isoform 1, SEQ ID NO: 2), expressed in a wheat germ cell-free translation system, obtained from Abnova (protein, listed as Homo sapiens)
chain: MPMDLILVVWFCVCTARTVVGFGMDPDLQMDIVTELDLVNTTLGVAQVSGMHNASKAFLFQDIEREIHAAPHVSEKLIQLFRNKSEFTILATVQQKPSTSGVILSIRELEHSYFELESSGLRDEIRYHYIHNGKPRTEALPYRMADGQWHKVALSVSASHLLLHVDCNRIYERVIDPPDTNLPPGINLWLGQRNQKHGLFKGIIQDGKIIFMPNGYITQCPNLNHTCPTCSDFLSLVQGIMDLQELLAKMTAKLNYAETRLSQLENCHCEKTCQVSGLLYRDQDSWVDGDHCRNCTCKSGAVECRRMSCPPLNCSPDSLPVHIAGQCCKVCRPKCIYGGKVLAEGQRILTKSCRECRGGVLVKITEMCPPLNCSEKDHILPENQCCRVCRGHNFCAEGPKCGENSECKNWNTKATCECKSGYISVQGDSAYCEDIDECAAKMHYCHANTVCVNLPGLYRCDCVPGYIRVDDFSCTEHDECGSGQHNCDENAICTNTVQGHSCTCKPGYVGNGTICRAFCEEGCRYGGTCVAPNKCVCPSGFTGSHCEKDIDECSEGIIECHNHSRCVNLPGWYHCECRSGFHDDGTYSLSGESCIDIDECALRTHTCWNDSACINLAGGFDCLCPSGPSCSGDCPHEGGLKHNGQVWTLKEDRCSVCSCKDGKIFCRRTACDCQNPSADLFCCPECDTRVTSQCLDQNGHKLYRSGDNWTHSCQQCRCLEGEVDCWPLTCPNLSCEYTAILEGECCPRCVSDPCLADNITYDIRKTCLDSYGVSRLSGSVWTMAGSPCTTCKCKNGRVCCSVDFECLQNN
significance of further increase of AQP3 RNA after UV exposure ([1]; UV-irradiated, 100 ng/ml): highly significant
UV-elevated levels of AQP3 ([1]; UV-irradiated, 150 ng/ml): did not have the same effect
UV-induced increase in IL-1β RNA level ([1]; UV-irradiated, 150 ng/ml): did not
UV-induced increase in IL-8 RNA level ([1]; UV-irradiated, 150 ng/ml): did not
UV-induced increase in MMP-1 RNA level ([1]; UV-irradiated, 150 ng/ml): did not
AVG Ct ACTB (housekeeping gene) ([1]; 100 ng/ml Nell 1): 17.67
AVG Ct AQP3 ([1]; 100 ng/ml Nell 1): 21.13
AVG Ct BCL2L1 ([1]; 100 ng/ml Nell 1): 23.22
AVG Ct COL1A1 ([1]; 100 ng/ml Nell 1): 18.36
AVG Ct COL4A2 ([1]; 100 ng/ml Nell 1): 21.55
AVG Ct COL5A1 ([1]; 100 ng/ml Nell 1): 22.98
AVG Ct COL6A1 ([1]; 100 ng/ml Nell 1): 19.15
AVG Ct COL6A2 ([1]; 100 ng/ml Nell 1): 19.19
AVG Ct COL7A1 ([1]; 100 ng/ml Nell 1): 24.38
AVG Ct COL8A1 ([1]; 100 ng/ml Nell 1): 26.96
AVG Ct COL11A1 ([1]; 100 ng/ml Nell 1): 26.86
AVG Ct COL12A1 ([1]; 100 ng/ml Nell 1): 23.95
AVG Ct COL14A1 ([1]; 100 ng/ml Nell 1): 25.64
AVG Ct COL15A1 ([1]; 100 ng/ml Nell 1): 25.01
AVG Ct COL16A1 ([1]; 100 ng/ml Nell 1): 23.42
AVG Ct DSG1 ([1]; 100 ng/ml Nell 1): 20.06
AVG Ct ERCC1 ([1]; 100 ng/ml Nell 1): 23.26
AVG Ct FN1 ([1]; 100 ng/ml Nell 1): 19.79
AVG Ct GAPDH (housekeeping gene) ([1]; 100 ng/ml Nell 1): 18.15
AVG Ct GDF15 ([1]; 100 ng/ml Nell 1): 22.21
AVG Ct GSTM3 ([1]; 100 ng/ml Nell 1): 29.13
AVG Ct HSPA8 ([1]; 100 ng/ml Nell 1): 19.74
AVG Ct IL1A ([1]; 100 ng/ml Nell 1): 24.03
AVG Ct IL1B ([1]; 100 ng/ml Nell 1): 26.48
AVG Ct IL8 ([1]; 100 ng/ml Nell 1): 17.72
AVG Ct KAL1 ([1]; 100 ng/ml Nell 1): 31.65
AVG Ct KRT16 ([1]; 100 ng/ml Nell 1): 16.35
AVG Ct LAMA1 ([1]; 100 ng/ml Nell 1): 28.16
AVG Ct LAMA2 ([1]; 100 ng/ml Nell 1): 25.03
AVG Ct LAMA3 ([1]; 100 ng/ml Nell 1): 22.41
AVG Ct LAMA5 ([1]; 100 ng/ml Nell 1): 26.3
AVG Ct LAMB1 ([1]; 100 ng/ml Nell 1): 22.34
AVG Ct LAMB3 ([1]; 100 ng/ml Nell 1): 23.78
AVG Ct LAMC1 ([1]; 100 ng/ml Nell 1): 22.72
AVG Ct MMP1 ([1]; 100 ng/ml Nell 1): 17.91
AVG Ct MMP2 ([1]; 100 ng/ml Nell 1): 18.77
AVG Ct MT2A ([1]; 100 ng/ml Nell 1): 16.81
AVG Ct PCNA ([1]; 100 ng/ml Nell 1): 23.31
AVG Ct RPL13A (housekeeping gene) ([1]; 100 ng/ml Nell 1): 20.55
AVG Ct SIRT1 ([1]; 100 ng/ml Nell 1): 26
AVG Ct TGFBI ([1]; 100 ng/ml Nell 1): 21.97
AVG Ct THBS3 ([1]; 100 ng/ml Nell 1): 28.28
AVG Ct TNC ([1]; 100 ng/ml Nell 1): 20.22
AVG Ct VTN ([1]; 100 ng/ml Nell 1): 31.83
AVG Ct ACTB (housekeeping gene) ([1]; 150 ng/ml Nell 1): 17.99
AVG Ct AQP3 ([1]; 150 ng/ml Nell 1): 21.71
AVG Ct BCL2L1 ([1]; 150 ng/ml Nell 1): 23.45
AVG Ct COL1A1 ([1]; 150 ng/ml Nell 1): 18.78
AVG Ct COL4A2 ([1]; 150 ng/ml Nell 1): 21.59
AVG Ct COL5A1 ([1]; 150 ng/ml Nell 1): 23.33
AVG Ct COL6A1 ([1]; 150 ng/ml Nell 1): 19.34
AVG Ct COL6A2 ([1]; 150 ng/ml Nell 1): 19.56
AVG Ct COL7A1 ([1]; 150 ng/ml Nell 1): 25.28
AVG Ct COL8A1 ([1]; 150 ng/ml Nell 1): 27.46
AVG Ct COL11A1 ([1]; 150 ng/ml Nell 1): 27.23
AVG Ct COL12A1 ([1]; 150 ng/ml Nell 1): 24.22
AVG Ct COL14A1 ([1]; 150 ng/ml Nell 1): 25.86
AVG Ct COL15A1 ([1]; 150 ng/ml Nell 1): 25.2
AVG Ct COL16A1 ([1]; 150 ng/ml Nell 1): 23.71
AVG Ct DSG1 ([1]; 150 ng/ml Nell 1): 20.21
AVG Ct ERCC1 ([1]; 150 ng/ml Nell 1): 23.41
AVG Ct FN1 ([1]; 150 ng/ml Nell 1): 20.13
AVG Ct GAPDH (housekeeping gene) ([1]; 150 ng/ml Nell 1): 18.08
AVG Ct GDF15 ([1]; 150 ng/ml Nell 1): 21.87
AVG Ct GSTM3 ([1]; 150 ng/ml Nell 1): 29.32
AVG Ct HSPA8 ([1]; 150 ng/ml Nell 1): 20.04
AVG Ct IL1A ([1]; 150 ng/ml Nell 1): 23.99
AVG Ct IL1B ([1]; 150 ng/ml Nell 1): 25.98
AVG Ct IL8 ([1]; 150 ng/ml Nell 1): 17.08
AVG Ct KAL1 ([1]; 150 ng/ml Nell 1): 32.24
AVG Ct KRT16 ([1]; 150 ng/ml Nell 1): 16.47
AVG Ct LAMA1 ([1]; 150 ng/ml Nell 1): 28.02
AVG Ct LAMA2 ([1]; 150 ng/ml Nell 1): 25.17
AVG Ct LAMA3 ([1]; 150 ng/ml Nell 1): 22.96
AVG Ct LAMA5 ([1]; 150 ng/ml Nell 1): 27.06
AVG Ct LAMB1 ([1]; 150 ng/ml Nell 1): 22.48
AVG Ct LAMB3 ([1]; 150 ng/ml Nell 1): 24.32
AVG Ct LAMC1 ([1]; 150 ng/ml Nell 1): 22.88
AVG Ct MMP1 ([1]; 150 ng/ml Nell 1): 17.75
AVG Ct MMP2 ([1]; 150 ng/ml Nell 1): 18.67
AVG Ct MT2A ([1]; 150 ng/ml Nell 1): 16.56
AVG Ct PCNA ([1]; 150 ng/ml Nell 1): 23.58
AVG Ct RPL13A (housekeeping gene) ([1]; 150 ng/ml Nell 1): 20.64
AVG Ct SIRT1 ([1]; 150 ng/ml Nell 1): 26.02
AVG Ct TGFBI ([1]; 150 ng/ml Nell 1): 21.91
AVG Ct THBS3 ([1]; 150 ng/ml Nell 1): 28.7
AVG Ct TNC ([1]; 150 ng/ml Nell 1): 20.2
AVG Ct VTN ([1]; 150 ng/ml Nell 1): 32.41
gene expression in the absence of UV irradiation ([1]; no UV): some decreases in gene expression
sunburned cell formation ([2]; 100 ng/ml): decrease in sunburned cell formation
sunburned cell formation ([2]; 150 ng/ml): did not decrease sunburned cell formation to the same extent as 100 ng/ml NELL1
number of sunburned cells as compared to UV-only controls ([2]; pre-treatment 30 minutes prior to UV, continued 24 hours post-irradiation): statistically significant reduction in the number of sunburned cells

— patent publication US20110236325A1, “METHODS TO TREAT OR PREVENT A SKIN CONDITION USING A NELL1 PEPTIDE” (NellOne Therapeutics, Inc., priority 2010, published 2011)
